Test results taken from publication PMC9256704 (2022).

Target: T1, recombinant TRIB2 protein (TP301210, OriGene), biotinylated (human, UniProt Q92519 1-343, biotinylated)
T1 chain: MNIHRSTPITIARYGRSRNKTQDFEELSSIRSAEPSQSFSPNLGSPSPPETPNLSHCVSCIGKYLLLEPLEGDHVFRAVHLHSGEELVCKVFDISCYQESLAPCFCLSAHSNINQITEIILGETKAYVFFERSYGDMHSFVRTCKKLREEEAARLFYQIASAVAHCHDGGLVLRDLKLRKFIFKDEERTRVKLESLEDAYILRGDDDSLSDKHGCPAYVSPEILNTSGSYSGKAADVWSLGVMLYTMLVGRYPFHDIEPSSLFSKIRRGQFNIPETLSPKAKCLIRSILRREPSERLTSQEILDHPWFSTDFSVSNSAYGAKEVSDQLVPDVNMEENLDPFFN
Experiment: BLI

- koff: 0.0175 s⁻¹
B1: PKM2 (ab89364, Abcam) (natural protein)
chain: not shown
